In PMC7275062:

B1: Plasmodesmata-located protein 5 (PDLP5), EGFP or mCherry fusion [Arabidopsis thaliana] / Plasmodesmata-located protein 5 (PDLP5), EGFP or mCherry fusion [Arabidopsis thaliana] (parent)
chain 1: SPTDNYIYAVCSPAKFSPSSGYETNLNSLLSSFVTSTAQTRYANFTVPTGKPEPTVTVYGIYQCRGDLDPTACSTCVSSAVAQVGALCSNSYSGFLQMENCLIRYDNKSFLGVQDKTLILNKCGQPMEFNDQDALTKASDVIGSLGTGDGSYRTGGNGNVQGVAQCSGDLSTSQCQDCLSDAIGRLKSDCGMAQGGYVYLSKCYARFSVGGSHARQTPGPNFGHEGEKGNKDDNGVGKTLAIIIGIVTLIILLVVFLAFVGKCCRKLQDEKWCK
chain 2: B1 chain 1
B2: Plasmodesmata-located protein 5 (PDLP5), EGFP or mCherry fusion [Arabidopsis thaliana] / itself (parent)
chain: B1 chain 1

Variants of: B1
Assay: FRET
Conditions: with Plasmodesmata-located protein 5 (PDLP5), at plasmodesmata, PDLP5-EGFP donor and PDLP5VV-mCherry acceptor, n=21, parent: 20, read off a plot

| response (% FRET efficiency) | Variant |
| --- | --- |
| 16 | chain 1 SPTDNYIYAVCSPAKFSPSSGYETNLNSLLSSFVTSTAQTRYANFTVPTGKPEPTVTVYGIYQCRGDLDPTACSTCVSSAVAQVGALCSNSYSGFLQMENCLIRYDNKSFLGVQDKTLILNKCGQPMEFNDQDALTKASDVIGSLGTGDGSYRTGGNGNVQGVAQCSGDLSTSQCQDCLSDAIGRLKSDCGMAQGGYVYLSKCYARFSVGGSHARQTPGPNFGHEGEKGNKDDNGVGKTLVIIIVIVTLIILLVVFLAFVGKCCRKLQDEKWCK [chain 1 A241V G245V] |

Same assay, conditions: with Plasmodesmata-located protein 5 (PDLP5), at plasmodesmata, PDLP5VV-EGFP donor and PDLP5-mCherry acceptor, n=15, parent: 20, read off a plot

| response (% FRET efficiency) | Variant |
| --- | --- |
| 19 | chain 1 SPTDNYIYAVCSPAKFSPSSGYETNLNSLLSSFVTSTAQTRYANFTVPTGKPEPTVTVYGIYQCRGDLDPTACSTCVSSAVAQVGALCSNSYSGFLQMENCLIRYDNKSFLGVQDKTLILNKCGQPMEFNDQDALTKASDVIGSLGTGDGSYRTGGNGNVQGVAQCSGDLSTSQCQDCLSDAIGRLKSDCGMAQGGYVYLSKCYARFSVGGSHARQTPGPNFGHEGEKGNKDDNGVGKTLVIIIVIVTLIILLVVFLAFVGKCCRKLQDEKWCK [chain 1 A241V G245V] |

Variants of: B2
Assay: FRET
Conditions: with itself; at plasmodesmata; EGFP-fused donor and mCherry-fused acceptor; n=12; parent: 20; read off a plot

| response (% FRET efficiency) | Variant |
| --- | --- |
| 17 | SPTDNYIYAVCSPAKFSPSSGYETNLNSLLSSFVTSTAQTRYANFTVPTGKPEPTVTVYGIYQCRGDLDPTACSTCVSSAVAQVGALCSNSYSGFLQMENCLIRYDNKSFLGVQDKTLILNKCGQPMEFNDQDALTKASDVIGSLGTGDGSYRTGGNGNVQGVAQCSGDLSTSQCQDCLSDAIGRLKSDCGMAQGGYVYLSKCYARFSVGGSHARQTPGPNFGHEGEKGNKDDNGVGKTLVIIIVIVTLIILLVVFLAFVGKCCRKLQDEKWCK [chain 1 A241V G245V] |
